# Values quoted from earlier work as cited in article PMC7212196.
# Molecular target: soluble IL-6 receptor (Homo sapiens) (UniProt P08887)
# UniProt P08887, sequence (P08887 20-355): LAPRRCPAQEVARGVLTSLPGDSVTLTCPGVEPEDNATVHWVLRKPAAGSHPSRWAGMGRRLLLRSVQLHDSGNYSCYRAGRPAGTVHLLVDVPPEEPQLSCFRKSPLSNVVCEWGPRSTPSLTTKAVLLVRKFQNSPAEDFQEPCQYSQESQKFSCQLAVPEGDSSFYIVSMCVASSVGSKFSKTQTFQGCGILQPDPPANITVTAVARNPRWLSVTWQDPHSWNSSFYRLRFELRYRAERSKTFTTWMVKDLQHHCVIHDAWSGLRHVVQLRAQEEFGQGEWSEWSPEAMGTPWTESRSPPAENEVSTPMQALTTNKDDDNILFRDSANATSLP
# IL-6, sequence (P05231 30-212): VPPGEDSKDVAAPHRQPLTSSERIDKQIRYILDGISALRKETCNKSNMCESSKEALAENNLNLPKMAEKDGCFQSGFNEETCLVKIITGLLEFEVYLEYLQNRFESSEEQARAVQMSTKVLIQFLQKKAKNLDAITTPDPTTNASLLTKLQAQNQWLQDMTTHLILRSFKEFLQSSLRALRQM
substance,measurement,value
IL-6 (from UniProt P05231),Kd,5 nM
